Where no end group is shown, it is not given here. [ ]: non-standard residue; d: D form. pS = N[C@@H](COP(=O)(O)O)C(=O)O
Biological target: σ2 subunit of the AP2 core (σ2-adaptin 1-143) (mouse, UniProt P62743 1-142)
Experiment: crystal structure

Sequence of σ2 subunit of the AP2 core (σ2-adaptin 1-143) (P62743 whole entry, looked up, tested part not stated): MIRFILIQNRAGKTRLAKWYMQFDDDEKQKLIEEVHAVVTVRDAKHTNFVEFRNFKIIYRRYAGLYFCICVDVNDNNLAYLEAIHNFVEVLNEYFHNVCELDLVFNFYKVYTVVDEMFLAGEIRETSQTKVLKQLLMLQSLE

B1: CD4 dileucine peptide RM(phosphoS)QIKRLLSE (Q peptide), as co-crystallised (peptide)
peptide: RM[pS]QIKRLLSE
B1: binds.

Reference: PMC4340503 (Nature, 2008)
